Measurements taken from patent publication US12295987B2, “Method of using a GIP/GLP1 co-agonist for diabetes” (Eli Lilly and Company, priority 2018, dated 2025).
Numbered stars: 1 amine (or outer) side, 2 acyl side, 3 side chain; on linkers, the order of the positions; unused ones are H or OH. Square brackets hold non-standard residues; d marks the D form. Side chains are listed from the residue outwards. Ends that are not written are not given here. * marks the point of attachment. C20 diacid = O=C(O)CCCCCCCCCCCCCCCCCCC(=O)*; γGlu = O=C(O)[C@H](CCC(=O)[*:2])N[*:1]; AEEA = NCCOCCOCC(=O)O; Aib = CC(C)(N)C(=O)O

What follows are substances tested against T1, human gastric inhibitory peptide receptor (hGIPR) (Homo sapiens, UniProt P48546) (assay: cAMP pharmacological functional assay in presence of 0.1% casein, hGIPR). Conditions: ratio of hGIPR to hGLP1R cAMP EC50 ratios.
T1 construct: expressed in transfected cells; host or cells: HEK293
T1 sequence (P48546 22-466): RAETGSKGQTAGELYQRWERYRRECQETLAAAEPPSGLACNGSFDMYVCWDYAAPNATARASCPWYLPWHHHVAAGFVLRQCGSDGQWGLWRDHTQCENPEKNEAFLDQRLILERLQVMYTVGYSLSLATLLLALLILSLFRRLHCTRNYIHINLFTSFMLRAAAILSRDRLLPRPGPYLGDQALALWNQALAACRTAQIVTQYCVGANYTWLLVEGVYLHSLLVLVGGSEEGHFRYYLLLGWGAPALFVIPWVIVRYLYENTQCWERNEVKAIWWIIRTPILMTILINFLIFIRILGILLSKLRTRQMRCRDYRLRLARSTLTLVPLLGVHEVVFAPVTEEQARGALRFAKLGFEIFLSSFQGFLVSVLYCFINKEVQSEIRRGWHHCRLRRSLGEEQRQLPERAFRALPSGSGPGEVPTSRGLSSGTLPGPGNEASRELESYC
Format: cell-based

Row | Substance | [hGIPR/hGLP1R] EC50 Ratio
1 | Y-Aib-EGTFTSDYSILLDK((2-[2-(2-Amino-ethoxy)-ethoxy]-acetyl)2-(γGlu)-CO—(CH2)18—CO2H)IAQ-Aib-AFIEYLIEGGPSSGAPPPS-NH2 (Y[Aib]EGTFTSDYSILLDK([AEEA-AEEA-γGlu-C20 diacid])IAQ[Aib]AFIEYLIEGGPSSGAPPPS-NH2; N-terminus assumed; SMILES CC[C@H](C)[C@H](NC(=O)[C@H](CCCCNC(=O)COCCOCCNC(=O)COCCOCCNC(=O)CC[C@H](NC(=O)CCCCCCCCCCCCCCCCCCC(=O)O)C(=O)O)NC(=O)[C@H](CC(=O)O)NC(=O)[C@H](CC(C)C)NC(=O)[C@H](CC(C)C)NC(=O)[C@@H](NC(=O)[C@H](CO)NC(=O)[C@H](Cc1ccc(O)cc1)NC(=O)[C@H](CC(=O)O)NC(=O)[C@H](CO)NC(=O)[C@@H](NC(=O)[C@H](Cc1ccccc1)NC(=O)[C@@H](NC(=O)CNC(=O)[C@H](CCC(=O)O)NC(=O)C(C)(C)NC(=O)[C@@H](N)Cc1ccc(O)cc1)[C@@H](C)O)[C@@H](C)O)[C@@H](C)CC)C(=O)N[C@@H](C)C(=O)N[C@@H](CCC(N)=O)C(=O)NC(C)(C)C(=O)N[C@@H](C)C(=O)N[C@@H](Cc1ccccc1)C(=O)N[C@H](C(=O)N[C@@H](CCC(=O)O)C(=O)N[C@@H](Cc1ccc(O)cc1)C(=O)N[C@@H](CC(C)C)C(=O)N[C@H](C(=O)N[C@@H](CCC(=O)O)C(=O)NCC(=O)NCC(=O)N1CCC[C@H]1C(=O)N[C@@H](CO)C(=O)N[C@@H](CO)C(=O)NCC(=O)N[C@@H](C)C(=O)N1CCC[C@H]1C(=O)N1CCC[C@H]1C(=O)N1CCC[C@H]1C(=O)N[C@@H](CO)C(N)=O)[C@@H](C)CC)[C@@H](C)CC) [Peptide 29] | 7.99
2 | Y-Aib-EGTFTSDYSILLDKIAK((2-[2-(2-Amino-ethoxy)-ethoxy]-acetyl)2-(γGlu)-CO—(CH2)18—CO2H)-Aib-AFIEYLIEGGPSSGAPPPS-NH2 (Y[Aib]EGTFTSDYSILLDKIAK([AEEA-AEEA-γGlu-C20 diacid])[Aib]AFIEYLIEGGPSSGAPPPS-NH2; N-terminus assumed; SMILES CC[C@H](C)[C@H](NC(=O)[C@H](CCCCN)NC(=O)[C@H](CC(=O)O)NC(=O)[C@H](CC(C)C)NC(=O)[C@H](CC(C)C)NC(=O)[C@@H](NC(=O)[C@H](CO)NC(=O)[C@H](Cc1ccc(O)cc1)NC(=O)[C@H](CC(=O)O)NC(=O)[C@H](CO)NC(=O)[C@@H](NC(=O)[C@H](Cc1ccccc1)NC(=O)[C@@H](NC(=O)CNC(=O)[C@H](CCC(=O)O)NC(=O)C(C)(C)NC(=O)[C@@H](N)Cc1ccc(O)cc1)[C@@H](C)O)[C@@H](C)O)[C@@H](C)CC)C(=O)N[C@@H](C)C(=O)N[C@@H](CCCCNC(=O)COCCOCCNC(=O)COCCOCCNC(=O)CC[C@H](NC(=O)CCCCCCCCCCCCCCCCCCC(=O)O)C(=O)O)C(=O)NC(C)(C)C(=O)N[C@@H](C)C(=O)N[C@@H](Cc1ccccc1)C(=O)N[C@H](C(=O)N[C@@H](CCC(=O)O)C(=O)N[C@@H](Cc1ccc(O)cc1)C(=O)N[C@@H](CC(C)C)C(=O)N[C@H](C(=O)N[C@@H](CCC(=O)O)C(=O)NCC(=O)NCC(=O)N1CCC[C@H]1C(=O)N[C@@H](CO)C(=O)N[C@@H](CO)C(=O)NCC(=O)N[C@@H](C)C(=O)N1CCC[C@H]1C(=O)N1CCC[C@H]1C(=O)N1CCC[C@H]1C(=O)N[C@@H](CO)C(N)=O)[C@@H](C)CC)[C@@H](C)CC) [Peptide 31] | 6.44
3 | Y-Aib-EGTFTSDYSILLDKIAQ-Aib-AFIEYLIEGGPK((2-[2-(2-Amino-ethoxy)-ethoxy]-acetyl)2-(γGlu)-CO—(CH2)18—CO2H)SGAPPPS-NH2 (Y[Aib]EGTFTSDYSILLDKIAQ[Aib]AFIEYLIEGGPK([AEEA-AEEA-γGlu-C20 diacid])SGAPPPS-NH2; N-terminus assumed; SMILES CC[C@H](C)[C@H](NC(=O)[C@H](CCCCN)NC(=O)[C@H](CC(=O)O)NC(=O)[C@H](CC(C)C)NC(=O)[C@H](CC(C)C)NC(=O)[C@@H](NC(=O)[C@H](CO)NC(=O)[C@H](Cc1ccc(O)cc1)NC(=O)[C@H](CC(=O)O)NC(=O)[C@H](CO)NC(=O)[C@@H](NC(=O)[C@H](Cc1ccccc1)NC(=O)[C@@H](NC(=O)CNC(=O)[C@H](CCC(=O)O)NC(=O)C(C)(C)NC(=O)[C@@H](N)Cc1ccc(O)cc1)[C@@H](C)O)[C@@H](C)O)[C@@H](C)CC)C(=O)N[C@@H](C)C(=O)N[C@@H](CCC(N)=O)C(=O)NC(C)(C)C(=O)N[C@@H](C)C(=O)N[C@@H](Cc1ccccc1)C(=O)N[C@H](C(=O)N[C@@H](CCC(=O)O)C(=O)N[C@@H](Cc1ccc(O)cc1)C(=O)N[C@@H](CC(C)C)C(=O)N[C@H](C(=O)N[C@@H](CCC(=O)O)C(=O)NCC(=O)NCC(=O)N1CCC[C@H]1C(=O)N[C@@H](CCCCNC(=O)COCCOCCNC(=O)COCCOCCNC(=O)CC[C@H](NC(=O)CCCCCCCCCCCCCCCCCCC(=O)O)C(=O)O)C(=O)N[C@@H](CO)C(=O)NCC(=O)N[C@@H](C)C(=O)N1CCC[C@H]1C(=O)N1CCC[C@H]1C(=O)N1CCC[C@H]1C(=O)N[C@@H](CO)C(N)=O)[C@@H](C)CC)[C@@H](C)CC) [Peptide 41] | 10.00
4 | Y-Aib-EGTFTSDYSILLDKIAQ-Aib-AFIEYLIEGGPSSGAPK((2-[2-(2-Amino-ethoxy)-ethoxy]-acetyl)2-(γGlu)-CO—(CH2)18—CO2H)PS-NH2 (Y[Aib]EGTFTSDYSILLDKIAQ[Aib]AFIEYLIEGGPSSGAPK([AEEA-AEEA-γGlu-C20 diacid])PS-NH2; N-terminus assumed; SMILES CC[C@H](C)[C@H](NC(=O)[C@H](CCCCN)NC(=O)[C@H](CC(=O)O)NC(=O)[C@H](CC(C)C)NC(=O)[C@H](CC(C)C)NC(=O)[C@@H](NC(=O)[C@H](CO)NC(=O)[C@H](Cc1ccc(O)cc1)NC(=O)[C@H](CC(=O)O)NC(=O)[C@H](CO)NC(=O)[C@@H](NC(=O)[C@H](Cc1ccccc1)NC(=O)[C@@H](NC(=O)CNC(=O)[C@H](CCC(=O)O)NC(=O)C(C)(C)NC(=O)[C@@H](N)Cc1ccc(O)cc1)[C@@H](C)O)[C@@H](C)O)[C@@H](C)CC)C(=O)N[C@@H](C)C(=O)N[C@@H](CCC(N)=O)C(=O)NC(C)(C)C(=O)N[C@@H](C)C(=O)N[C@@H](Cc1ccccc1)C(=O)N[C@H](C(=O)N[C@@H](CCC(=O)O)C(=O)N[C@@H](Cc1ccc(O)cc1)C(=O)N[C@@H](CC(C)C)C(=O)N[C@H](C(=O)N[C@@H](CCC(=O)O)C(=O)NCC(=O)NCC(=O)N1CCC[C@H]1C(=O)N[C@@H](CO)C(=O)N[C@@H](CO)C(=O)NCC(=O)N[C@@H](C)C(=O)N1CCC[C@H]1C(=O)N[C@@H](CCCCNC(=O)COCCOCCNC(=O)COCCOCCNC(=O)CC[C@H](NC(=O)CCCCCCCCCCCCCCCCCCC(=O)O)C(=O)O)C(=O)N1CCC[C@H]1C(=O)N[C@@H](CO)C(N)=O)[C@@H](C)CC)[C@@H](C)CC) [Peptide 46] | 8.54
5 | Y-Aib-EGTFTSDYSILLDKIAQ-Aib-AFIEYLIEGGPSSGAPPK((2-[2-(2-Amino-ethoxy)-ethoxy]-acetyl)2-(γGlu)-CO—(CH2)18—CO2H)S-NH2 (Y[Aib]EGTFTSDYSILLDKIAQ[Aib]AFIEYLIEGGPSSGAPPK([AEEA-AEEA-γGlu-C20 diacid])S-NH2; N-terminus assumed; SMILES CC[C@H](C)[C@H](NC(=O)[C@H](CCCCN)NC(=O)[C@H](CC(=O)O)NC(=O)[C@H](CC(C)C)NC(=O)[C@H](CC(C)C)NC(=O)[C@@H](NC(=O)[C@H](CO)NC(=O)[C@H](Cc1ccc(O)cc1)NC(=O)[C@H](CC(=O)O)NC(=O)[C@H](CO)NC(=O)[C@@H](NC(=O)[C@H](Cc1ccccc1)NC(=O)[C@@H](NC(=O)CNC(=O)[C@H](CCC(=O)O)NC(=O)C(C)(C)NC(=O)[C@@H](N)Cc1ccc(O)cc1)[C@@H](C)O)[C@@H](C)O)[C@@H](C)CC)C(=O)N[C@@H](C)C(=O)N[C@@H](CCC(N)=O)C(=O)NC(C)(C)C(=O)N[C@@H](C)C(=O)N[C@@H](Cc1ccccc1)C(=O)N[C@H](C(=O)N[C@@H](CCC(=O)O)C(=O)N[C@@H](Cc1ccc(O)cc1)C(=O)N[C@@H](CC(C)C)C(=O)N[C@H](C(=O)N[C@@H](CCC(=O)O)C(=O)NCC(=O)NCC(=O)N1CCC[C@H]1C(=O)N[C@@H](CO)C(=O)N[C@@H](CO)C(=O)NCC(=O)N[C@@H](C)C(=O)N1CCC[C@H]1C(=O)N1CCC[C@H]1C(=O)N[C@@H](CCCCNC(=O)COCCOCCNC(=O)COCCOCCNC(=O)CC[C@H](NC(=O)CCCCCCCCCCCCCCCCCCC(=O)O)C(=O)O)C(=O)N[C@@H](CO)C(N)=O)[C@@H](C)CC)[C@@H](C)CC) [Peptide 47] | 7.35
6 | Y-Aib-EGTFTSDYSILLDKIAQ-Aib-AFIEYLIEGGPSSGAPPPK((2-[2-(2-Amino-ethoxy)-ethoxy]-acetyl)2-(γGlu)-CO—(CH2)18—CO2H)—NH2 (Y[Aib]EGTFTSDYSILLDKIAQ[Aib]AFIEYLIEGGPSSGAPPPK([AEEA-AEEA-γGlu-C20 diacid])-NH2; N-terminus assumed; SMILES CC[C@H](C)[C@H](NC(=O)[C@H](CCCCN)NC(=O)[C@H](CC(=O)O)NC(=O)[C@H](CC(C)C)NC(=O)[C@H](CC(C)C)NC(=O)[C@@H](NC(=O)[C@H](CO)NC(=O)[C@H](Cc1ccc(O)cc1)NC(=O)[C@H](CC(=O)O)NC(=O)[C@H](CO)NC(=O)[C@@H](NC(=O)[C@H](Cc1ccccc1)NC(=O)[C@@H](NC(=O)CNC(=O)[C@H](CCC(=O)O)NC(=O)C(C)(C)NC(=O)[C@@H](N)Cc1ccc(O)cc1)[C@@H](C)O)[C@@H](C)O)[C@@H](C)CC)C(=O)N[C@@H](C)C(=O)N[C@@H](CCC(N)=O)C(=O)NC(C)(C)C(=O)N[C@@H](C)C(=O)N[C@@H](Cc1ccccc1)C(=O)N[C@H](C(=O)N[C@@H](CCC(=O)O)C(=O)N[C@@H](Cc1ccc(O)cc1)C(=O)N[C@@H](CC(C)C)C(=O)N[C@H](C(=O)N[C@@H](CCC(=O)O)C(=O)NCC(=O)NCC(=O)N1CCC[C@H]1C(=O)N[C@@H](CO)C(=O)N[C@@H](CO)C(=O)NCC(=O)N[C@@H](C)C(=O)N1CCC[C@H]1C(=O)N1CCC[C@H]1C(=O)N1CCC[C@H]1C(=O)N[C@@H](CCCCNC(=O)COCCOCCNC(=O)COCCOCCNC(=O)CC[C@H](NC(=O)CCCCCCCCCCCCCCCCCCC(=O)O)C(=O)O)C(N)=O)[C@@H](C)CC)[C@@H](C)CC) [Peptide 48] | 8.93
